Experiments:
histone H3 [1] = target: histone H3
MT1-MMP catalytic domain = target: T1, MT1-MMP catalytic domain (Homo sapiens, UniProt P50281); assay: In vitro cleavage by MT1-MMP catalytic domain (anti-His immunoblot); format: biochemical; settings: for sensitivity to MT1-MMP cleavage: incubated with recombinant MT1-MMP catalytic enzyme
T1 construct: reacted with the MT1-MMP catalytic domain (EMD Millipore) at 22° C; purchased Calbiochem / EMD Millipore
Description: FIG. 3 depicts anti-His immunoblotting of TAT-TLK1B or TAT-MS-TLK1B, reacted with the MT1-MMP catalytic domain (EMD Millipore) at 22° C., as a function of time. 1.5 μg TAT-TLK1B, TAT-MS-TLK1B or TAT-TL-MS-K was reacted with 0.02 mU MT1-MMP, catalytic domain (Calbiochem) in reaction buffer containing 50 mM Tris pH 7.5, 150 mM NaCl, 5 mM CaCl2. The reactions were incubated at 22° C. for the indicated times (10, 20, 30, 60, or 120 minutes). […] Although MT1-MMP has a preference for the preferred cleavage site motif, that preference is neither strict nor absolute. Thus other proteins will be cleaved as well; what is important is the relative sensitivity of MS-containing proteins to MT1-MMP cleavage.

histone H3 [2] = target: histone H3 (Homo sapiens, UniProt P68431); assay: Kinase activity by histone H3 Ser10 phosphorylation (immunoblot); format: biochemical; settings: in vitro, kinase buffer at 30° C; data not shown
Description: In the next attempt, the MS was inserted 5′ to the kinase domain of TLK1B. The recombinant TAT-TL-MS-K protein was produced, purified, and the activity of the protein was analyzed in vitro. […] Activity of the TAT-TL-MS-K was monitored indirectly by evaluation of histone H3 Seri 0 phosphorylation. Recombinant TAT-TLK1B or TAT-TL-MS-K was reacted with histone H3 at ratios of 1:10, 1:5, or 1:1 in a kinase buffer at 30° C. Reactions were loaded onto SDS-PAGE gels, and immunoblotted against anti-Ser10 H3 (Millipore). […] The functional, MMP-sensitive TAT-TL-MS-K will be used to confirm transduction in normal and cancer cells, and the ability of TAT-TL-MS-K to sensitize cancer cells such as head and neck cancer cells to radiation.

[3] = tested on: HNSCC cells (cell line SCC40); assay: Protein transduction into SCC40 cells (anti-hemagglutinin immunoblot); format: cell-based; settings: 40 μg protein, 6 hours after protein transduction
Description: HNSCC cells (cell line SCC40) were cultured on rat tail type I collagen plates in DMEM/0.1% BSA for 3 days before addition of 40 μg TAT-TLK1B or TAT-MS-TLK1B. Control cells (Untreated cells, Untx) were treated with an equal volume of OPTI-MEM™ reduced serum medium—a modification of Eagle's Minimum Essential Media, buffered with HEPES and sodium bicarbonate, and supplemented with hypoxanthine, thymidine, sodium pyruvate, L-glutamine, trace elements, and growth factors. FIG. 4A depicts the results of immunoblotting the respective cell lysates with anti-(MT1-MMP catalytic domain) antibody (Millipore). The arrow at 68 kD corresponds to pro-MT1-MMP. […] The 52 kD and 55 kD proteins were products of autocatalytic cleavage of MT1-MMP. […] Active MT1-MMP is membrane-bound, and is responsible for cleaving and activating pro-MMP-2 to active MMP-2. Active MT1-MMP can also undergo autocatalytic processing. The presence of a substrate such as TAT-MS-TLK1B or TAT-TL-MS-K will decrease the MT1-MMP autocatalysis. […] In other words, the observed decrease in MT1-MMP auto-cleavage is indirect evidence that the recombinant TAT-MS-fusion protein is being cleaved as designed.
FIG. 4B depicts results of immunoblotting the respective cell lysates with horseradish peroxidase-conjugated anti-hemagglutinin (Sigma) 6 hours after protein transduction. […]

rat salivary glands = settings: delivered directly to rat salivary glands; preclinical, Sunavala-Dossabhoy 2012; cited from earlier work

MT1-MMP expressed by HNSCC cell line SCC40
MT1-MMP autoproteolytic products (52 kD and 55 kD) in SCC40 lysates, immunoblot (TAT-MS-TLK1B): The autoproteolytic products declined sharply in the presence of the TAT-MS-TLK1B

B1: TAT-TL-MS-K fusion protein (protein)
chain: MHHHHHHSSGLVPRGSGMKETAAAKFERQHMDSPDLGTDDDDKAMAISDPNSSSVDKLGYGRKKRRQRRRGGSTMGGYPYDVPDYAGSMLKLAALESNKIQDLEKKEGRIDDLLRANCDLRRQIDEQQKLLEKYKERLNKCISMSKKLLIEKSTQEKLSSREKSMQDRLRLGHFTTVRHGASFTEQWTDGFAFQNLVKQQEWVNQQREDIERQRKLLAKRKPPTANNSQAPSTNSEPKQRKNKAVNGAENDPFVRPNLPQLLTLAEYHEQEEIFKLRLGHLKKEEAEIQAELERLERVRNLHIRELKRINNEDNSQFKAAAVPLSLRSGTSDHPTLNERYLLLHLLGRGGFSEVYKAFDLYEQRYAAVKIHQLNKSWRDEKKENYHKHACREYRIHKELDHPRIVKLYDYFSLDTDTFCTVLEYCEGNDLDFYLKQHKLMSEKEARSIVMQIVNALRYLNEIKPPIIHYDLKPGNILLVDGTACGEIKITDFGLSKIMDDDSYGVDGMDLTSQGAGTYWYLPPECFVVGKEPPKISNKVDVWSVGVIFFQCLYGRKPFGHNQSQQDILQENTILKATEVQFPVKPVVSSEAKAFIRRCLAYRKEDRFDVHQLANDPYLLPHMRRSNSSGNLHMAGLTASPTPPSSSIITY
phosphorylation of histone H3 Ser10, immunoblot with anti-Ser10 H3 (histone H3 [1]): TAT-TL-MS-K retained the native kinase activity, as indicated by phosphorylation of histone H3 (data not shown)

B2: TAT-TL-MS-K: SEQ ID NO: 4, fusion protein with MT1-MMP cleavage site inserted 5′ to the kinase domain of TLK1B (protein)
chain: B1 chain
modifications: TAT-TL-MS-K fusion protein
sensitivity to MT1-MMP cleavage (MT1-MMP catalytic domain): more sensitive to MT1-MMP cleavage than was TAT-TLK1B
kinase activity (phosphorylation of histone H3 Ser-10) (histone H3 [2]): retained the native kinase activity

B3: TAT-TLK-MS fusion protein (protein)
chain: MHHHHHHSSGLVPRGSGMKETAAAKFERQHMDSPDLGTDDDDKAMAISDPNSSSVDKLGYGRKKRRQRRRGGSTMSGYPYDVPDYAGSMVKLAALESNKIQDLEKKEGRIDDLLRANCDLRRQIDEQQKLLEKYKERLNKCISMSKKLLIEKSTQEKLSSREKSMQDRLRLGHFTTVRHGASFTEQWTDGFAFQNLVKQQEWVNQQREDIERQRKLLAKRKPPTANNSQAPSTNSEPKQRKNKAVNGAENDPFVRPNLPQLLTLAEYHEQEEIFKLRLGHLKKEEAEIQAELERLERVRNLHIRELKRINNEDNSQFKDHPTLNERYLLLHLLGRGGFSEVYKAFDLYEQRYAAVKIHQLNKSWRDEKKENYHKHACREYRIHKELDHPRIVKLYDYFSLDTDTFCTVLEYCEGNDLDFYLKQHKLMSEKEARSIVMQIVNALRYLNEIKPPIIHYDLKPGNILLVDGTACGEIKITDFGLSKIMDDDSYGVDGMDLTSQGAGTYWYLPPECFVVGKEPPKISNKVDVWSVGVIFFQCLYGRKPFGHNQSQQDILQENTILKATEVQFPVKGSVPLSLRSGTPVVSSEAKAFIRRCLAYRKEDRFDVHQLANDPYLLPHMRRSNSSGNLHMAGLTASPTPPSSSIITY
phosphorylation of histone H3 Ser-10 (kinase activity) (histone H3 [1]): would not phosphorylate the TLK substrate, histone H3 Ser-10

B4: TAT-TLK-MS: SEQ ID NO: 3, fusion protein with MT1-MMP cleavage site in a presumptive loop towards the carboxy terminus (protein)
chain: B3 chain
modifications: TAT-TLK-MS fusion protein
sensitivity to MT1-MMP cleavage (MT1-MMP catalytic domain): sensitive to cleavage
kinase activity (phosphorylation of histone H3 Ser-10) (histone H3 [2]): would not phosphorylate the TLK substrate

B5: TAT-TLK1B: SEQ ID NO: 2, TAT-TLK1B fusion protein without the MS cleavage site (protein)
chain: MHHHHHHSSGLVPRGSGMKETAAAKFERQHMDSPDLGTDDDDKAMAISDPNSSSVDKLGYGRKKRRQRRRGGSTMSGYPYDVPDYAGSMVKLAALESNKIQDLEKKEGRIDDLLRANCDLRRQIDEQQKLLEKYKERLNKCISMSKKLLIEKSTQEKLSSREKSMQDRLRLGHFTTVRHGASFTEQWTDGFAFQNLVKQQEWVNQQREDIERQRKLLAKRKPPTANNSQAPSTNSEPKQRKNKAVNGAENDPFVRPNLPQLLTLAEYHEQEEIFKLRLGHLKKEEAEIQAELERLERVRNLHIRELKRINNEDNSQFKDHPTLNERYLLLHLLGRGGFSEVYKAFDLYEQRYAAVKIHQLNKSWRDEKKENYHKHACREYRIHKELDHPRIVKLYDYFSLDTDTFCTVLEYCEGNDLDFYLKQHKLMSEKEARSIVMQIVNALRYLNEIKPPIIHYDLKPGNILLVDGTACGEIKITDFGLSKIMDDDSYGVDGMDLTSQGAGTYWYLPPECFVVGKEPPKISNKVDVWSVGVIFFQCLYGRKPFGHNQSQQDILQENTILKATEVQFPVKPVVSSEAKAFIRRCLAYRKEDRFDVHQLANDPYLLPHMRRSNSSGNLHMAGLTASPTPPSSSIITY
modifications: TAT-TLK1B fusion protein
transduction into SCC40 cancer cells [3]: efficiently transduced
cleavage by MT1-MMP catalytic domain after 120 minutes (MT1-MMP catalytic domain; 1.5 μg protein, 0.02 mU MT1-MMP, 22° C, 120 minutes): still showed substantial activity
sensitivity to MT1-MMP cleavage (MT1-MMP catalytic domain): also cleaved by the enzyme, although not as rapidly
radiation-induced xerostomia (rat salivary glands): mitigate radiation-induced xerostomia

From patent US20160067316A1, “Selective Sensitization of Cancer Cells to, and Selective Protection of Non-Cancer Cells from Genotoxic Therapies” (Board of Supervisors of Louisiana State University and …, priority 2014, published 2016)
